Data on ten molecules can be found in patent US20240034815A1 (Xencor, published 2024).

For test [1], the target named is T1, His-tagged human GPC3 (human, UniProt P51654 25-559, limits assumed).
T1 construct: Captured on HIS1K sensors in the Octet assay; also called human GPC3 antigen; Glypican 3; not shown: His tag
Kind of test: binding assay not named for this figure; Octet (BLI) is the method of Example 2B. As to the method:
(§1) After humanization, GPC3 binding arms were engineered with single point mutations in the variable light domain with the aim to create a ladder of GPC3 binding affinity, illustrative sequences for which are depicted in FIG. 13. 73 variable light domain variants were engineered and paired with GPC3-A H1.1 (see Example 3C for description of GPC3-A H1.1 variant). The GPC3-A variants were engineered in the 1+1 Fab-scFv-Fc bsAb format and binding for GPC3 antigen was measured using Octet, a BioLayer Interferometry (BLI)-based method. Experimental steps for Octet generally include the following: Immobilization (capture of ligand to a biosensor); Association (dipping of ligand-coated biosensors into wells containing the analyte); and Dissociation (returning of biosensors to well containing buffer). For ease of clinical development (e.g. by investigating the therapeutics in model animals), it is useful for the binding domains to be cross-reactive for cynomolgus antigen; therefore, binding to both human and cynomolgus GPC3 antigen were investigated. His-tagged human and cynomolgus GPC3 were captured on HIS1K sensors then dipped into multiple concentrations of the bispecific antibodies. The resulting dissociation constant (KD) are depicted in FIG. 23.

The target of test [2] is T2, His-tagged cynomolgus GPC3 (cynomolgus, UniProt A0A2K5VK50 24-558).
T2 construct: Captured on HIS1K sensors in the Octet assay; also called cynomolgus GPC3 antigen; cyno GPC3; not shown: His tag
Described as above. As to the method:
as §1

Test [3] deals with T1, His-tagged human GPC3. Kind of test: binding assay not named for this figure; human GPC3 per legend paragraph 61.

T1 sequence (P51654 25-559 limits assumed): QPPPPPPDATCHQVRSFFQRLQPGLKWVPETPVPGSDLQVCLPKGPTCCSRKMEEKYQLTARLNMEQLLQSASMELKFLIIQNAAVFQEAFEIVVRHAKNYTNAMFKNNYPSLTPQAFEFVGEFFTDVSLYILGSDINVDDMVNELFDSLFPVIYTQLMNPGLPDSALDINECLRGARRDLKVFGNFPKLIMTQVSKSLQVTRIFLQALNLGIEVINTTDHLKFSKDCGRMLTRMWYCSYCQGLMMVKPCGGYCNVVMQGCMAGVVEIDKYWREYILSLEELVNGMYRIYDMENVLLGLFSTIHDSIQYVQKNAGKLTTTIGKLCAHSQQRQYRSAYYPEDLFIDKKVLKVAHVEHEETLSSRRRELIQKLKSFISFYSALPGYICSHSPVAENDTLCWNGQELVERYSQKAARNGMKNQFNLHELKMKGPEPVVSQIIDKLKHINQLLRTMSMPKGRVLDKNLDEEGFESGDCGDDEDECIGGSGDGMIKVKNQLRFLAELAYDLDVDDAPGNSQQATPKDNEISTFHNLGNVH

B1: XENP36933 H1.1_L1.67 (bispecific antibody)
heavy: QVQLVQSGAEVKKPGASVKVSCKASGYTFTDYEMHWVRQAPGQGLEWMGALEPKTGDTAYSQKFQGRVTMTADKSISTAYMELSRLRSDDTAVYYCTRFYSYTYWGQGTLVTVSSASTKGPSVFPLAPSSKSTSGGTAALGCLVKDYFPEPVTVSWNSGALTSGVHTFPAVLQSSGLYSLSSVVTVPSSSLGTQTYICNVNHKPSDTKVDKKVEPKSCDKTHTCPPCPAPPVAGPSVFLFPPKPKDTLMISRTPEVTCVVVDVKHEDPEVKFNWYVDGVEVHNAKTKPREEEYNSTYRVVSVLTVLHQDWLNGKEYKCKVSNKALPAPIEKTISKAKGQPREPQVYTLPPSREEMTKNQVSLTCDVSGFYPSDIAVEWESDGQPENNYKTTPPVLDSDGSFFLYSKLTVDKSRWEQGDVFSCSVMHEALHNHYTQKSLSLSPGK
scFv-Fc: not shown
light: DVVMTQSPLSLPVTLGQPASISCRSSQSLVHSNKNTWLHWYQQRPGQSPRLLIYKVSNRFSGVPDRFSGSGSGTDFTLKISRVEAEDVGVYFCSQNTHVPPTFGSGTKLEIKRTVAAPSVFIFPPSDEQLKSGTASVVCLLNNFYPREAKVQWKVDNALQSGNSQESVTEQDSKDSTYSLSSTLTLSKADYEKHKVYACEVTHQGLSSPVTKSFNRGEC
notes: also called [GPC3]H1.1_L1.67; VL G29K Y32W; copies: 1 + 1 + 1
On to B1, for which the Kd was found to be 550 nM in test [1] and 600 nM in test [2].

B2: XENP36936 H1.1_L1.70 (bispecific antibody)
heavy: QVQLVQSGAEVKKPGASVKVSCKASGYTFTDYEMHWVRQAPGQGLEWMGALEPKTGDTAYSQKFQGRVTMTADKSISTAYMELSRLRSDDTAVYYCTRFYSYTYWGQGTLVTVSSASTKGPSVFPLAPSSKSTSGGTAALGCLVKDYFPEPVTVSWNSGALTSGVHTFPAVLQSSGLYSLSSVVTVPSSSLGTQTYICNVNHKPSDTKVDKKVEPKSCDKTHTCPPCPAPPVAGPSVFLFPPKPKDTLMISRTPEVTCVVVDVKHEDPEVKFNWYVDGVEVHNAKTKPREEEYNSTYRVVSVLTVLHQDWLNGKEYKCKVSNKALPAPIEKTISKAKGQPREPQVYTLPPSREEMTKNQVSLTCDVSGFYPSDIAVEWESDGQPENNYKTTPPVLDSDGSFFLYSKLTVDKSRWEQGDVFSCSVMHEALHNHYTQKSLSLSPGK
scFv-Fc: not shown
light: DVVMTQSPLSLPVTLGQPASISCRSSQSLVHSNKNTYLHWYQQRPGQSPRLLIYQVSNRFSGVPDRFSGSGSGTDFTLKISRVEAEDVGVYFCSQNTHVPPTFGSGTKLEIKRTVAAPSVFIFPPSDEQLKSGTASVVCLLNNFYPREAKVQWKVDNALQSGNSQESVTEQDSKDSTYSLSSTLTLSKADYEKHKVYACEVTHQGLSSPVTKSFNRGEC
notes: also called [GPC3]H1.1_L1.70; VL G29K K50Q; copies: 1 + 1 + 1
In the case of B2, the Kd in test [1] and in test [2] was 130 nM in each case.

B3: XENP36934 H1.1_L1.68 (bispecific antibody)
heavy: QVQLVQSGAEVKKPGASVKVSCKASGYTFTDYEMHWVRQAPGQGLEWMGALEPKTGDTAYSQKFQGRVTMTADKSISTAYMELSRLRSDDTAVYYCTRFYSYTYWGQGTLVTVSSASTKGPSVFPLAPSSKSTSGGTAALGCLVKDYFPEPVTVSWNSGALTSGVHTFPAVLQSSGLYSLSSVVTVPSSSLGTQTYICNVNHKPSDTKVDKKVEPKSCDKTHTCPPCPAPPVAGPSVFLFPPKPKDTLMISRTPEVTCVVVDVKHEDPEVKFNWYVDGVEVHNAKTKPREEEYNSTYRVVSVLTVLHQDWLNGKEYKCKVSNKALPAPIEKTISKAKGQPREPQVYTLPPSREEMTKNQVSLTCDVSGFYPSDIAVEWESDGQPENNYKTTPPVLDSDGSFFLYSKLTVDKSRWEQGDVFSCSVMHEALHNHYTQKSLSLSPGK
scFv-Fc: not shown
light: DVVMTQSPLSLPVTLGQPASISCRSSQSLVHSYGNTYLHWYQQRPGQSPRLLIYQVSNRFSGVPDRFSGSGSGTDFTLKISRVEAEDVGVYFCSQNTHVPPTFGSGTKLEIKRTVAAPSVFIFPPSDEQLKSGTASVVCLLNNFYPREAKVQWKVDNALQSGNSQESVTEQDSKDSTYSLSSTLTLSKADYEKHKVYACEVTHQGLSSPVTKSFNRGEC
notes: also called [GPC3]H1.1_L1.68; VL N28Y K50Q; copies: 1 + 1 + 1
As for B3, the Kd in test [1] and in test [2] was 370 nM throughout.

B4: XENP 23067 H1_L1.4 (antibody, human IgG1, kappa, V domains shown)
VH: QVQLVQSGAEVKKPGASVKVSCKASGYTFTDYEMHWVRQAPGQGLEWMGALDPKTGDTAYSQKFQGRVTMTADKSISTAYMELSRLRSDDTAVYYCTRFYSYTYWGQGTLVTVSS
VL: DVVMTQSPLSLPVTLGQPASISCRSSQSLVHSHGNTYLHWYQQRPGQSPRLLIYKVSNRFSGVPDRFSGSGSGTDFTLKISRVEAEDVGVYFCSQNTHVPPTFGSGTKLEIKR
notes: VH WT, VL mutation (Kabat) N28H; also called [GPC3]H1_L1.4; VL N28H
As for B4, binding in test [3] was characterised by a dissociation constant (Kd) of 11.7 nM.

B5: GPC3-A variable light variant L1.6 (G29T) with H1 (antibody, V domains shown)
VH: QVQLVQSGAEVKKPGASVKVSCKASGYTFTDYEMHWVRQAPGQGLEWMGALDPKTGDTAYSQKFQGRVTMTADKSISTAYMELSRLRSDDTAVYYCTRFYSYTYWGQGTLVTVSS
VL: DVVMTQSPLSLPVTLGQPASISCRSSQSLVHSNTNTYLHWYQQRPGQSPRLLIYKVSNRFSGVPDRFSGSGSGTDFTLKISRVEAEDVGVYFCSQNTHVPPTFGSGTKLEIKR
notes: pairing with H1 follows from the library being made on humanized GPC3-A and from pair l) of claim 53; also called [GPC3]H1_L1.6
B5: the Kd in test [3] amounted to 2.85 nM.

B6: XENP 23070 H1_L1.7 (antibody, human IgG1, kappa, V domains shown)
VH: QVQLVQSGAEVKKPGASVKVSCKASGYTFTDYEMHWVRQAPGQGLEWMGALDPKTGDTAYSQKFQGRVTMTADKSISTAYMELSRLRSDDTAVYYCTRFYSYTYWGQGTLVTVSS
VL: DVVMTQSPLSLPVTLGQPASISCRSSQSLVHSNKNTYLHWYQQRPGQSPRLLIYKVSNRFSGVPDRFSGSGSGTDFTLKISRVEAEDVGVYFCSQNTHVPPTFGSGTKLEIKR
notes: VH WT, VL mutation (Kabat) G29K; also called [GPC3]H1_L1.7; VL G29K; copies: 2 + 2
As to B6, the affinity in test [3], expressed as Kd, was 2.22 nM.

B7: XENP 23071 H1_L1.8 (antibody, human IgG1, kappa, V domains shown)
VH: QVQLVQSGAEVKKPGASVKVSCKASGYTFTDYEMHWVRQAPGQGLEWMGALDPKTGDTAYSQKFQGRVTMTADKSISTAYMELSRLRSDDTAVYYCTRFYSYTYWGQGTLVTVSS
VL: DVVMTQSPLSLPVTLGQPASISCRSSQSLVHSNGQTYLHWYQQRPGQSPRLLIYKVSNRFSGVPDRFSGSGSGTDFTLKISRVEAEDVGVYFCSQNTHVPPTFGSGTKLEIKR
notes: VH WT, VL mutation (Kabat) N30Q; also called [GPC3]H1_L1.8; VL N30Q; copies: 2 + 2
In test [3], B7 returned a Kd of 2.35 nM.

B8: XENP 23068 H1_L1.5 (antibody, human IgG1, kappa, V domains shown)
VH: QVQLVQSGAEVKKPGASVKVSCKASGYTFTDYEMHWVRQAPGQGLEWMGALDPKTGDTAYSQKFQGRVTMTADKSISTAYMELSRLRSDDTAVYYCTRFYSYTYWGQGTLVTVSS
VL: DVVMTQSPLSLPVTLGQPASISCRSSQSLVHSNANTYLHWYQQRPGQSPRLLIYKVSNRFSGVPDRFSGSGSGTDFTLKISRVEAEDVGVYFCSQNTHVPPTFGSGTKLEIKR
notes: VH WT, VL mutation (Kabat) G29A; also called [GPC3]H1_L1.5; VL G29A; copies: 2 + 2
B8 had a Kd in test [3] of 2.09 nM.

B9: XENP 23073 H1_L1.10 (antibody, human IgG1, kappa, V domains shown)
VH: QVQLVQSGAEVKKPGASVKVSCKASGYTFTDYEMHWVRQAPGQGLEWMGALDPKTGDTAYSQKFQGRVTMTADKSISTAYMELSRLRSDDTAVYYCTRFYSYTYWGQGTLVTVSS
VL: DVVMTQSPLSLPVTLGQPASISCRSSQSLVHSNGHTYLHWYQQRPGQSPRLLIYKVSNRFSGVPDRFSGSGSGTDFTLKISRVEAEDVGVYFCSQNTHVPPTFGSGTKLEIKR
notes: VH WT, VL mutation (Kabat) N30H; also called [GPC3]H1_L1.10; VL N30H; copies: 2 + 2
As to B9, in test [3], the dissociation constant (Kd) worked out at 3.38 nM.

B10: XENP 23072 H1_L1.9 (antibody, human IgG1, kappa, V domains shown)
VH: QVQLVQSGAEVKKPGASVKVSCKASGYTFTDYEMHWVRQAPGQGLEWMGALDPKTGDTAYSQKFQGRVTMTADKSISTAYMELSRLRSDDTAVYYCTRFYSYTYWGQGTLVTVSS
VL: DVVMTQSPLSLPVTLGQPASISCRSSQSLVHSNGYTYLHWYQQRPGQSPRLLIYKVSNRFSGVPDRFSGSGSGTDFTLKISRVEAEDVGVYFCSQNTHVPPTFGSGTKLEIKR
notes: VH WT, VL mutation (Kabat) N30Y; also called [GPC3]H1_L1.9; VL N30Y; copies: 2 + 2
B10 registered a Kd in test [3] of 1.37 nM.
